Measured values taken from paper PMC2064834 (The Journal of Cell Biology, 2007).

B1: Δ52-SEX4 (Arabidopsis thaliana) (protein)
chain: AVSESKSSSEMSGVAKDEEKSDEYSQDMTQAMGAVLTYRHELGMNYNFIRPDLIVGSCLQTPEDVDKLRKIGVKTIFCLQQDPDLEYFGVDISSIQAYAKKYSDIQHIRCEIRDFDAFDLRMRLPAVVGTLYKAVKRNGGVTYVHCTAGMGRAPAVALTYMFWVQGYKLMEAHKLLMSKRSCFPKLDAIRNATIDILTGLKRKTVTLTLKDKGFSRVEISGLDIGWGQRIPLTLDKGTGFWILKRELPEGQFEYKYIIDGEWTHNEAEPFIGPNKDGHTNNYAKVVDDPTSVDGTTRERLSSEDPELLEEERSKLIQFLETCSEAEV

Assays:
Hs-laforin = molecular target: T1, Hs-laforin (Homo sapiens, UniProt O95278); assay: p-NPP hydrolysis, absorbance at […] nm; type: biochemical; details: pH 5.5; 37°C; 2 mM DTT; artificial substrate
T1 sequence (O95278 1-331): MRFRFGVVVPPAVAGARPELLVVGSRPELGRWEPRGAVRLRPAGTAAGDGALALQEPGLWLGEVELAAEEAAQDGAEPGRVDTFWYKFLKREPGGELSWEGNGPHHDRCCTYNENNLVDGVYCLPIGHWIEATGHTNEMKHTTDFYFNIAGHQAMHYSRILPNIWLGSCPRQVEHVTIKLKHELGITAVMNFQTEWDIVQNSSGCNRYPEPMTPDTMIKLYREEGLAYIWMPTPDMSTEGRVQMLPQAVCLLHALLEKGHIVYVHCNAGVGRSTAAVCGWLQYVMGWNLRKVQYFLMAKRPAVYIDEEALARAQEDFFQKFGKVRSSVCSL

purified protein = substrate: O=[N+]([O-])c1ccc(OP(=O)(O)O)cc1; assay: purified protein; details: pH 6.0, 37°C, 2 mM DTT, artificial substrate

Molecule | Km (Hs-laforin) [µM] | Km (purified protein) [µM] | Vmax (purified protein) [µmol/min/mg] | kcat (purified protein) [s⁻¹] | kcat/Km (purified protein) [M⁻¹ s⁻¹]
O=[N+]([O-])c1ccc(OP(=O)(O)O)cc1 [p-NPP] | 323 | – | – | – | –
B1 | – | 410 | 2.41 | 1.54 | 3756
